From the DeepSol protein solubility set

assay: soluble on expression in E. coli; label from the status in PepcDB or PDB records

Sequence | soluble on expression in E. coli
MTKQREKLIEVKNVKQHFDVSGGVVKAVNDISFDIYRGETFGLVGESGCGKSTTGRTIIRLYDATAGEVLFDGENVHGKKSRAELKKFNRKMQMIFQDPYASLNPRMTVGDIIAEGIDIHGLAKNKKERMDRVHELLNTVGLNKEHANRFPHEFSGGQRQRIGIARALAVEPEFIIADEPISALDVSIQAQVVNLLKKLQKEKGLTYLFIAHDLSMVKYISDRIGVMYRGQIVELTTSDELYANPIHPYTKSLLSAIPLPDPDYERNRKRIVYDPSQHNYGSEEPTMREIRPGHFVLCSEAEYKKYKEIYQ | not soluble
MGSDKIHHHHHHMTLLNMSNVQIMDVVQALSLSIERGERVGLIGESGSGKTITAMSILRLIPSSGSIVFDGADIQGLSEKQMCALRGKRISMVFQEPMTALDPLMKVGTQISHAIRIHSSVSRAQARKKADALLHSVELDPELRSRYPHELSGGQRQRILIAMALAHDPDLLICDEPTTALDVTSQKAIVDLILRLVAERGTGLLFITHDLGLVARTCERVLVMREGRIIESGTVEDVLKNPREDYTAMLVQASTLAPAPQVALSDDEVLHIDNVTKKYRGTTAVEDVTLTVHRGERLGIVGGSGSGKTTLLKMISGLSSPTSGHINTEGSMRIVFQDPMQSLDPHMSIADIVSEPLGHRDLKAVERALEEVGLDAGMMNRLPHEFSGGQRQRISIARALVSSPDILLADEPVSALDVSVRAKVLALLDRLVSERHLTMLFVSHDLHVVRSLCTTVAVMREGKIVEYGPTEDVFNNPQHEYTKALIEAIPSL | not soluble
MGSDKIHHHHHHMTTVYSGLISCYNAYPKKHSYRVRRSDKGWHDGAVWYLEKAKIMLRNDNLKIKGLTPEQEENVRAIHAMNPAHILVECATNKSWGGKKELSDLDLDSYKKAADTLYEEGFGLCIRYNRQTSIKEFIQQIVDHIGAAQYDNVETGKQTIKLIRRDYKPEDLPVFNYDNGILSVRDDDSGATDKQPNQVIVKYREPVSNRDDQAIANNIASVRMHGVISKTVEYKGVPTFDLAARLARDLELVASGLTRLKIVFDMRASELKPGDVVRVNLPDRDIVDVVFRVGKLENGNDGEIIATCIQDVFGLPAANYSTQKGESLYIPPDYTANPIQQARLIEVPYHVLPLVLSDAERAFVKPTDCFVWALGAQPTALSVGYDMLVDVGGGYTQTATGSFTPFVRLLEPVSPYQTNIKIKLEGDYAAVAGALALIVDDEIIKIDAVDFKTGTMTVGRGCADTVPQAHKADAVAWCYLLAAGTDESKYTVNERLNVKLLTRTAQQTLDESKAEVLTLTTQQRQARPFCVELGVPRPRRTSGQTDSALGRQHAPRRWRQL | not soluble
AVVATDAYVKRTNIFYHASSSRLLAVGHPYYSIKKVNKTVVPKVSGYQYRVFKVVLPDPNKFALPDSSLFDPTTQRLVWACTGLEVGRGQPLGVGVSGHPLLNKYDDVENSGGYGGNPGQDNRVNVGMDYKQTQLCMVGCAPPLGEHWGKGTQSSNTSVQNGDCPPLELITSVIQDGDMVDTGFGAMNFADLQTNKSDVPLDICGTVCKYPDYLQMAADPYGDRLFFYLRKEQMFARHFFNRAGTVGEPVPDDLLVKGGNNRSSVASSIYVHTPSGSLVSSEAQLFNKPYWLQKAQGHNNGICWGNHLSVTVVDTTRSTNMTLCASVSKSATYTNSDYKEYMRHVEEFDLQFIFQLCSITLSAEVMAYIHTMNPSVLEDWNGGSGGKQDPYKDMSFWEVNLKEKFSSELDQFPLGRKFLLQSGY | soluble
MTTAKPNTVEQFEHVIDICREVFQKKLHDYGASWRVMRPSSLTDQLYIKANRIRNIQMKGLSKVDEGVESEFIGVVNYGVIALIQLELGVADTPKMETEEALRLYDLKIREAMSLMLDKNHDYGEAWRQMRVSSFADLILTKVFRTKEIEDLGGDTYISEGVDANYMDMINYAIFALIQLNG | not soluble
MEKTYKLPIVLGTDPENTIRIDKLPPLKGAFAVHIHESETENNAHIKLEYGDTEYCLSLYVFNYPKFLRNETVRVRNYDLWPKWIMFAARLPNGKLHPKSGGKVYREDAVIVGEGNYELENPFISFKYSDGRILNFRIEFYRYLRYKSPKYGPSFRSEYWFIGVD | not soluble
MMEMLVDQGTDASSSASTSTSSVSRFGADTFMNTPDDVMMNDDMEPIPRDRCNTWPMRRPQLEPPLNSSPIIHEQIPEEDADLYGSNEQCGQLGGASSNGSTAMLHTPDGSNSHQTSFPSDFRMSESPDDTVSGKKTTTRRNAWGNMSYAELITTAIMASPEKRLTLAQVYEWMVQNVPYFRDKGDSNSSAGWKNSIRHNLSLHSRFMRIQNEGAGKSSWWVINPDAKPGRNPRRTRERSNTIETTTKAQLEKSRRGAKKRIKERALMGSLHSTLNGNSIAGSIQTISHDLYDDDSMQGAFDNVPSSFRPRTQSNLSIPGSSSRVSPAIGSDIYDDLEFPSWVGESVPAIPSDIVDRTDQMRIDATTHIGGVQIKQESKPIKTEPIAPPPSYHELNSVRGSCAQNPLLRNPIVPSTNFKPMPLPGAYGNYQNGGITPINWLSTSNSSPLPGIQSCGIVAAQHTVASSSALPIDLENLTLPDQPLMDTMDVDALIRHELSQAGGQHIHFDL | not soluble
MFNTTPINIDKWLKENEGLLKPPVNNYCLHKGGFTVMIVGGPNERTGYHINPTPEWFYQKKGSMLLKVVDETDAEPKFIDIIINEGDSYLLPGNVPHSPVRFADTVGIVVEQDRPGGENDKIRWYCSHCRQVVHESELQMLDLGTQVKEAILDFENDVEKRTCFHCKTLNYARPQSN | soluble
AHHHHHHGSKARIIYRASFDAAHAVKIEEWEELHGHTFSLEVVVEGEIKKGYVMDFLKLKKVVDGVVKELDHRNLNKIMDNPTTENIALWISERIRKNLPGDVKLKRLSLWEGNEFGVELEW | soluble
MQRETVWLVEDEQGIADTLVYMLQQEGFAVEVFERGLPVLDKARKQVPDVMILDVGLPDISGFELCRQLLALHPALPVLFLTARSEEVDRLLGLEIGADDYVAKPFSPREVCARVRTLLRRVKKFSTPSPVIRIGHFELNEPAAQISWFDTPLALTRYEFLLLKTLLKSPGRVWSRQQLMDSVWEDAQDTYDRTVDTHIKTLRAKLRAINPDLSPINTHRGMGYSLRGL | soluble
MSVEEAALALWAKSGNPFHPLLAHMLDTAAVALAVLRMEPPRTRALYAEDWGLPEEGALAWAAALVGLHDLGKASPVFQAGWEEGKERVQRAGLPFGELLDWVAHGVFTELFLRRLLKEKGLPERAANDLAAALGAHHGFPANAEEKSRARRHLRTEDPLWKEARRWLLEEVFRRLGAPLPPSQGNGEARPEAVLRVMALASFADWVASDPSLFPYGRDPRRGDYLKEALRLAQEALNRLGWPAFAKAQRREFGELFPYIPKPNALQESVPALLEGACTPVLLLVEAPMGMGKTEAALYAHHLLQAGLGHRGLYVALPTQATANGLFPRVRGFLERLGEGSRLELQLQHGTALLNPHYAGLLERAAPRQVGEEEEGGAVASAWFSARKRAMLAPYGVGTLDQALLGVLRVKHHFVRLWGLMNRVVVLDEVHAYDVYTSGLLQALLRWLRALGSSAVVMTATLPPSRRRALLEAWAGEEVEGQDLGPYPRVVLVGEGVKARSLPPAREVEVALEVLREVDVEPLAQRLKGALPGAVGAIVNTVDRAQDLYRALGEGTPLTLEELARRLGGISGGQAWEEVRQALPERGGEVVGKVLTDGTLVFLLHARFPAEERALRGSVVLALFGKGGPRPPRAILVATQVAEQSLDLDFDLLYTDLAPIDLLFQRSGRLHRHERPRPEEHARPRLLLGVPEDLDFGKPLYWDKVYEDYVLLATWRALSGRDRLRVPGDLEALLEEIYEGENPESFPEGLRERAKKSLKALQERRDREANTARRLSLSELDRLLAYWDEGALVAQERLEDDEEKAETQRLLTRLGDPSVAVVPLFRVGEGLFLDREGRRRAPLKGEVSREEAEALFRRAVRLSRFPLPQELLKEEPPPAWRKSGLLRGLRPLEVGRVFRSGERAFQVELDPELGVVYLPV | soluble
MSLSEEKWAIITGADGGMGTEITRAVAEAGYHIIMACYRPSKAEPIRQRLVNETGNANMEVMAVDLSSMASTASFADRIVERHLPVSLLMNNAGTMETGLHITDDGFERTVSVNYLGPYLLTRKLLPALTCGARIVNMVSCTYAIGHLDFPDFFRQGRKGSFWRIPVYSNTKLALMLFTIELSERLREKGITVNAADPGIVSTDIITMHQWFDPLTDIFFRPFIRTPKKGASTAVGLLLDEAVAGVSGQLYASSHRKQLSEKYLCHVQQKQLWQETEQALERWLKEGHHHHHH | soluble
QLNQILRAANLHSFAVANLRQVEHATRPTKTMSAGLTIINVPAFYSSQHQLQKQYWTQLQHLIKQTKPTTDLILNFAANTGGSSAPMIAGLAAIIPDGTIYTGITNHHRNRPRMMYHGRITGGLGQDDVNFSQPTAAHFRHIYAIIGNQTASAAEVTIMALKRNPHVTLVGRSSAGYTSLNGGVFLNTAVAVMTIGTLKATVKIHGQQYFNNQPLKPDIPTLYQPLAPLQLGQSPHLDADFLSELRTIMKHYH | not soluble
MSLGSMGPAQFVGRQTLATTPMGDVEIGLQERNGQLEVDIIQARGLTAKPGSKTLPAAYIKAYLLENGICIAKKKTKVARKSLDPLYNQVLLFPESPQGKVLQVIVWGNYGRMERKQFMGVARVLLEELDLTTLAVGWYKLFPTSSMVDPATGPLLRQASQLSLESTVGPCGERSEGHHHHHH | soluble
MKIGFFTDTYFPQVSGVATSIKTLKDELEKHGHEVYIFTTTDPNATDFEEDVIRMPSVPFVSFKDRRVVVRGMWYAYLIAKELELDLIHTHTEFGAGILGKMVGKKMKIPVIHTYHTMYEDYLHYIAKGKVVRPSHVKFFSRVFTNHTTGVVCPSERVIEKLRDYGVTAPMRIIPTGIEIDKFLRPDITEEMIAGMRQQLGIEEQQIMLLSLSRISYEKNIQAIIQGLPQVIEKLPQTRLVIVGNGPYLEDLKELAEELEVSEYVQFTGEVPNEEVAIYYKAADYFVSASTSETQGLTYTEAMAAGVQCVAEGNAYLNNLFDHESLGKTFKTDSDFATTLIDYIQANIKMDQTILDEKLFEISSTNFGNKMIEFYQDTLIYFDQLQMEKENADSIKKIKVKFTSLRKLEHHHHHH | soluble
MSVIQNIIGRIAVLRGGKYSVEVDVATDEGFGRFTSPIDDNPMLHIAEARRAVSEVDEIIGPELIGFDASEQELIDSYLWEIDGTEDFSHIGANTALAVSTAIAKAAANSRDMPLYSYIGGTFATELPVPVLSFAQDDMFDYYLVVKDLLEVTDIIDATNKIREIVKEINLENLSKASEDVGVELGLEVALGIGMKKEMDIEKVLNLVEDYNVAYIKPIGPPELFLELIAGTHGVFIDGEYLFRTNSVLDRRYYNALSIKPINLGTLTDLYNFVNDVKAEKITPILAEAKYEPADETFPHIALGLRCPAMLISWSSIEKINELNRIAEELGERGRIITFEE | soluble
MSLSRIIMLIPTGTSVGLTSVSLGVIRAMERKGVRLSVFKPIAQPRTGGDAPDQTTTIVRANSSTTTAAEPLKMSYVEGLLSSNQKDVLMEEIVANYHANTKDAEVVLVEGLVPTRKHQFAQSLNYEIAKTLNAEIVFVMSQGTDTPEQLKERIELTRNSFGGAKNTNITGVIVNKLNAPVDEQGRTRPDLSEIFDDSSKAKVNNVDPAKLQESSPLPVLGAVPWSFDLIATRAIDMARHLNATIINEGDINTRRVKSVTFCARSIPHMLEHFRAGSLLVTSADRPDVLVAACLAAMNGVEIGALLLTGGYEMDARISKLCERAFATGLPVFMVNTNTWQTSLSLQSFNLEVPVDDHERIEKVQEYVANYINADWIDSLTATSERSRRLSPPAFRYQLTELARKAGKRIVLPEGDEPRTVKAAAICAERGIATCVLLGNPAEINRVAASQGVELGAGIEIVDPEVVRESYVGRLVELRKNKGMTETVAREQLEDNVVLGTLMLEQDEVDGLVSGAVHTTANTIRPPLQLIKTAPGSSLVSSVFFMLLPEQVYVYGDCAINPDPTAEQLAEIAIQSADSAAAFGIEPRVAMLSYSTGTSGAGSDVEKVREATRLAQEKRPDLMIDGPLQYDAAVMADVAKSKAPNSPVAGRATVFIFPDLNTGNTTYKAVQRSADLISIGPMLQGMRKPVNDLSRGALVDDIVYTIALTAIQSAQQQEGHHHHHH | not soluble
